Measurements from paper PMC5148066.
Read-outs that look alike come from different tables or passages of the source.

B1: mouse CXCL2 (ligand)
chain: AVVASELRCQCLKTLPRVDFKNIQSLSVTPPGPHCAQTEVIATLKGGQKVCLDPEAPLVQKIIQKILNKGKAN
B2: mouse CXCL4 (ligand)
chain: VTSAGPEESDGDLSCVCVKTISSGIHLKHITSLEVIKAGRHCAVPQLIATLKNGRKICLDRQAPLYKKVIKKILES
B3: mouse XCL1 (ligand)
chain: VGTEVLEESSCVNLQTQRLPVQKIKTYIIWEGAMRAVIFVTKRGLKICADPEAKWVKAAIKTVDGRASTRKNMAETVPTGAQRSTSTAITLTG
B4: mouse CCL3 (ligand)
chain: APYGADTPTACCFSYSRKIPRQFIVDYFETSSLCSQPGVIFLTKRNRQICADSKETWVQEYITDLELNA
B5: mouse CCL19 (ligand)
chain: GANDAEDCCLSVTQRPIPGNIVKAFRYLLNEDGCRVPAVVFTTLRGYQLCAPPDQPWVDRIIRRLKKSSAKNKGNSTRRSPVS
B6: mouse CXCL1 (ligand)
chain: APIANELRCQCLQTMAGIHLKNIQSLKVLPSGPHCTQTEVIATLKNGREACLDPEAPLVQKIVQKMLKGVPK

Legend:
[1] = target: Bovine papular stomatitis virus chemokine-binding protein (Bovine papular stomatitis virus); assay: SPR; BPSV-CBP immobilised on a CM5 chip (~500 RU, amine coupling, 10 mM sodium acetate pH 4.5); serial dilutions of mouse chemokines in HBS-EP pH 7.4 flowed in triplicate, 3 min association, 10 min dissociation, 25°C, Biacore X100; global fit, 1:1 binding model
[2] = target: Bovine papular stomatitis virus chemokine-binding protein (Bovine papular stomatitis virus (strain V660 named for the sequence analysis)); assay: SEC-MALS; purified BPSV-CBP in solution, three concentrations (2, 1, 0.05 mg/ml)
[3] = target: Bovine papular stomatitis virus chemokine-binding protein (Bovine papular stomatitis virus (strain V660 named for the sequence analysis)); assay: SPR; BPSV-CBP immobilised on a CM5 chip (~500 RU) by amine coupling; serial dilutions of mouse chemokines in HBS-EP (20 mM HEPES, 150 mM NaCl, 3.4 mM EDTA, 0.005% Polysorbate 20, pH 7.4) run in triplicate, 3 min association, 10 min dissociation; 25°C, Biacore X100; global fit with a 1:1 binding model
[4] = target: Bovine papular stomatitis virus chemokine-binding protein (Bovine papular stomatitis virus); assay: SPR; BPSV-CBP immobilised on a CM5 chip (~500 RU, amine coupling, 10 mM sodium acetate pH 4.5); serial dilutions of mouse chemokines in HBS-EP pH 7.4 flowed in triplicate, 3 min association, 10 min dissociation, 25°C, Biacore X100; global fit, 1:1 binding model; remark: listed apart in the source

Molecule	Kd [3]	koff [3]	koff [4]	kon [4]	Kd [4]	further results
mouse CCL2 (from UniProt P10148 24-148) (ligand)						Kd [1]: 0.186 nM; koff [1]: 0.00022 s⁻¹; kon [1]: 1.18e+06 M⁻¹ s⁻¹
mouse CCL21 (from UniProt P84444 24-133) (ligand)						Kd [1]: 0.385 nM; koff [1]: 0.00296 s⁻¹; kon [1]: 7.68e+06 M⁻¹ s⁻¹
Bovine papular stomatitis virus chemokine-binding protein (natural protein)						stoichiometry N [2]: 2
B1	0.725 nM	0.0006 s⁻¹	0.00056 s⁻¹	770000 M⁻¹ s⁻¹		
B2	2.3 nM		0.00234 s⁻¹	1.01e+06 M⁻¹ s⁻¹	2.32 nM	
B3	1.4 nM	0.0014 s⁻¹	0.00135 s⁻¹	990000 M⁻¹ s⁻¹	1.36 nM	kon [3]: 1e+06 M⁻¹ s⁻¹
B4			0.00023 s⁻¹	1.76e+06 M⁻¹ s⁻¹	0.13 nM	
B5		2e-05 s⁻¹		1.37e+07 M⁻¹ s⁻¹	0.00146 nM	
B6	4.3 nM		0.00316 s⁻¹	730000 M⁻¹ s⁻¹	4.33 nM	
